How the values were obtained:
[1] = molecular target: T1, recombinant human tumor necrosis factor-α (human, UniProt P01375 77-233); assay: cell-based or functional assay
[2] = molecular target: T1, recombinant human tumor necrosis …; assay: competition ELISA, rhTNF coated on plate, competitor HRP-labeled humira; given in µg/mL
Protocol: The anti-hTNFα human antibody humira marked with horseradish peroxidase (HRP) was used as a reagent. Elisa plates were coated with rhTNF (50 μl of […]), and left overnight at room temperature. The coating solution was discarded, and each well was blocked with 1% skim milk in phosphate buffered saline (PBS) for about 0.5 hours, and washed with PBS containing 0.05% Tween 20. And then a mixture of 50 μl of growth medium and 50 μl of HRP labeled humira was added to each well. Unlabeled humira and antibody-free medium were used as positive and negative controls. […] The wells in which the binding of HRP-labeled humira and rhTNFα was inhibited Kong were amplified and subcloned, followed by analysis of several mouse monoclonal antibodies which show the inhibition effects, and finally hybridoma cells were screened out. The hybridoma cells were intermediate cultured, and the supernatant was taken for purification, and the mouse monoclonal antibody TM2-11-12 and TM2-6-3. The purified mouse monoclonal antibodies TM2-11-12 and TM2-6-3 were tested in competition binding assays. Even at the concentration up to 1 μg/mL, the mouse antibody TM2-6-3 only competed out about 50% of the binding of humira to hTNFα.

mouse TNFα [3] = molecular target: T2, mouse TNFα (mouse, UniProt P06804 80-235); assay: ELISA, TNFα coated on plate, HRP-labeled anti-human Fc detection
T2 sequence (looked up): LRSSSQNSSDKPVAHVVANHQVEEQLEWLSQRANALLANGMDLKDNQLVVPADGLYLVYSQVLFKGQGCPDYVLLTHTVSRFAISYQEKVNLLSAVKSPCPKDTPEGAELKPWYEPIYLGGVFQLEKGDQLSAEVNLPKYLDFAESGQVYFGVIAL
Protocol: (§1) On a plate, respectively coat recombinant human TNFα 5 ng/well, mouse TNFα 25 ng/well, and monkey TNFα 5 ng/well at room temperature, and blocked for 1 h, washed. And then 1.8-fold gradient dilutions of AT132 was added with an initial concentration of 250 ng/mL, and incubated at 25° C. for 2 h, washed, HRP-labeled anti-human Fc antibody added, and incubated at room temperature for 1 h, washed, and the substrate solution added as 100 μl/well, placed in dark at 37° C. for 30 min. In accordance with the order of the added color reagents, 0.2 M H₂SO₄, 50 μl/well was added to terminate the reaction. Within about 5 minutes after termination, OD values were test at 450 nm/630 nm on a microplate reader, and median effective concentrations were obtained by four-parameter fitting. Compare the binding activities of AT132 to different sources of TNFα.

[4] = molecular target: T1, recombinant human tumor necrosis …; assay: SPR, Biacore X100; antibody captured by goat anti-human IgG Fc on CM5 chip, TNFα as analyte
Protocol: AT132 affinity was determined by Biacore X100, and analyzed with Biacore X100 kinetics/affinity analysis software. Using indirect capture method, goat anti-human IgG Fc polyclonal antibody was coupled to the surface of CM5 chip as a capture molecule by using Amine Coupling Kit. By calculation, AT132 and Humira as control were respectively diluted to a a certain concentration to be lately used as ligand, and TNFα as the analyte. Analytes were diluted to 5 concentrations, and each concentration as a cycle. First, using HBS-EP buffer to run for three cycles, designing an analyte concentration of 0 concentration to run for two cycles, and finally, designing a repeat analyte concentration to run for a cycle. The whole process ran 11 cycles, and each cycle can draw a curve. The dynamics/affinity data of the measured antibody and humira were analyzed by Biacore X100 kinetics/affinity analysis software.

monkey TNFα = monkey TNFα (monkey); assay: ELISA, TNFα coated on plate (5 ng/well), HRP-labeled anti-human Fc detection, four-parameter fit
Protocol: as §1

mouse TNFα [5] = molecular target: T2, mouse TNFα; assay: ELISA, TNFα coated on plate (mouse 25 ng/well, human 5 ng/well), HRP-labeled anti-human Fc detection; calculated from coating and sample concentrations
Protocol: as §1

T1 sequence (P01375 77-233 limits assumed): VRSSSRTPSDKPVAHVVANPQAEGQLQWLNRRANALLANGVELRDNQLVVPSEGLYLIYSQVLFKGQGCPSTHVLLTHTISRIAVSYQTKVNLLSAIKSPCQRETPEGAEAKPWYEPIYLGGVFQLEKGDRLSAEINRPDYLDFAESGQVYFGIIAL

B1: AT135 humanized anti-TNFα antibody (antibody, human IgG1, V domains shown)
VH: QVQLVQSGPELKKPGASVKISCKASGYTFTHYGMHWVKQTPGRGLKWVGWINTYTGEPTYDADFQGRFTFSLDTSVSTAFLQINSLKDEDLAVYFCARYDFDGFDYWGQGTTLTVSS
VL: ENVLTQSPPILSASPGERVTMTCRASSSITFNYLHWYQQKSGDSPKVWIYSTSNLVSGVPSRFSGSGSGTSYSLTISSLEAEDAATYYCQQYSDYPYTFGGGTKLEIK
B1 was tested, and the “EC50(ng/mL), neutralization of TNFα killing effect on L929 cell” value (“EC50(ng/mL), neutralization” below) [1] was 50 ng/mL.

B2: mouse monoclonal antibody TM2-11-12 (antibody, mouse IgG1, V domains shown)
VH: QVQLVQSGPELKKPGETVKISCKASGYTFTHYGMHWVKQTPGRSLKWVGWINTYTGEPTYDADFQGRFTFSLETSTSTAFLQINTLKDEDLATYFCARYDFDGFDYWGQGTTLTVSS
VL: ENVLTQSPPIMSASPGEEVTMTCRASSSITFNYLHWYQQKSGDSPKVWIYSTSNLVSGVPARFSGSGSGTSYSLTISSVEAEDAATYYCQQYSDYPYTFGGGTKLEIK
notes: Purified from hybridoma supernatant; The cloning primers are antisense to the mouse IgG1 heavy chain and mouse kappa light chain constant regions; also called anti-hTNFα mouse antibody TM2-11-12
Work on B2 yielded an IC50 [2] of about 0.05 µg/mL.

B3: AT164 humanized anti-TNFα antibody (antibody, human IgG1, V domains shown)
VH: QVQLVQSGPELKKPGASVKISCKASGYTFTHYGMHWVKQTPGRGLKWVGWINTYTGEPTYDADFQGRFTFSLDTSVSTAFLQINSLKDEDLAVYFCARYDFDGFDYWGQGTTLTVSS
VL: ENVLTQSPPIMSASPGERVTMTCRASSSITFNYLHWYQQKSGDSPKVLIYSTSNLVSGVPSRFSGSGSGTSYSLTISSVEAEDAATYYCQQYSDYPYTFGGGTKLEIK
B3 was tested, and the “EC50(ng/mL), neutralization” value [1] was 45.5 ng/mL.

B4: AT143 humanized anti-TNFα antibody (antibody, human IgG1, V domains shown)
VH: QVQLVQSGPELKKPGESVKISCKASGYTFTHYGMHWVKQTPGRGLKWVGWINTYTGEPTYDADFQGRFTFSLETSTSTAYLQINSLKDEDLATYFCARYDFDGFDYWGQGTTLTVSS
VL: ENVLTQSPPIMSASPGERVTMTCRASSSITFNYLHWYQQKSGDSPKVLIYSTSNLVSGVPSRFSGSGSGTSYSLTISSVEAEDAATYYCQQYSDYPYTFGGGTKLEIK
For B4, the “EC50(ng/mL), neutralization” value [1] was 39.8 ng/mL.

B5: AT151 humanized anti-TNFα antibody (antibody, human IgG1, V domains shown)
VH: QVQLVQSGPELKKPGASVKISCKASGYTFTHYGMHWVKQTPGRGLKWVGWINTYTGEPTYDADFQGRFTFSLETSVSTAFLQINSLKDEDLATYFCARYDFDGFDYWGQGTTLTVSS
VL: ENVLTQSPPILSASPGEEVTMTCRASSSITFNYLHWYQQKSGDSPKVWIYSTSNLVSGVPARFSGSGSGTSYSLTISSLEAEDFATYYCQQYSDYPYTFGGGTKLEIK
B5 was tested, and the “EC50(ng/mL), neutralization” value [1] was 42.1 ng/mL.

B6: AT132 humanized anti-TNFα monoclonal antibody (antibody, human IgG1, V domains shown)
VH: QVQLVQSGPELKKPGASVKISCKASGYTFTHYGMHWVKQTPGRGLKWVGWINTYTGEPTYDADFQGRFTFSLETSVSTAFLQINSLKDEDLATYFCARYDFDGFDYWGQGTTLTVSS
VL: ENVLTQSPPILSASPGERVTMTCRASSSITFNYLHWYQQKSGDSPKVWIYSTSNLVSGVPSRFSGSGSGTSYSLTISSLEAEDAATYYCQQYSDYPYTFGGGTKLEIK
notes: also called E001VH/F001VL
In the case of B6, the “EC50(ng/mL), neutralization” value [1] is reported as 20.4 ng/mL, the binding result (mouse TNFα [3]) is reported as “no binding” and the Ka [4] is reported as 8.4e+10 M⁻¹. For the same binder, the Kd [4] was 0.0119 nM, the “binding activity relative to human TNFα” value (monkey TNFα) was about 50% and the “fold lower binding activity than to human TNFα” value (mouse TNFα [5]) was 1000 times lower.

From patent US20120219547A1 (LIVZON MABPHARM, published 2012)
